This note sets out measurements from publication PMC3754857.

In the experiment the target is OX40-R65C (human OX40 with p.Arg65Cys), expressed ectopically on cells (human) (UniProt P43489). The experiment is described as follows: flow cytometry on cells.
Sequence of UniProt P43489 (P43489 29-277 R65C): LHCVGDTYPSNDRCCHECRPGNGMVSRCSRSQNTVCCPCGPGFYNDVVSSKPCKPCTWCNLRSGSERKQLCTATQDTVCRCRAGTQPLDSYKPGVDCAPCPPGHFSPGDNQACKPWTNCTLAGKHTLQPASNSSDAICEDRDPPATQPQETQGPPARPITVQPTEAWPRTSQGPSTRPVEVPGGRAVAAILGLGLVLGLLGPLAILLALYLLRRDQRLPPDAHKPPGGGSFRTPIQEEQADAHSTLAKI

For the substance “biotinylated recombinant soluble human OX40 ligand (OX40L) (from UniProt P23510 51-183)”, the fold decrease of OX40L binding against cells expressing OX40-WT was 16 fold.
